Measured values: patent US20030118557A1, “Axon repair” (priority 2001, published 2003)

System: dorsal root ganglion (DRG) neurons
Assay: short-term in vitro axon outgrowth assay with adult DRG neurons from transgenic mice
Format: cell-based
Details: for propensity / number of adult DRG neurons that extended axons: acute outgrowth assay, naive neurons; for extension of long (>300 μm) axons: naive adult DRG neurons from transgenic mice, short-term culture
Method: For the in vitro analysis, dorsal root ganglion (DRG) neurons from adult mice (>8 weeks) were dissociated essentially as described (Smith et al, J. Neurosci. 17:646-658 (1997)), and centrifuged at 200×g for 10 minutes through a cushion of 10% Ficoll in F14 culture medium to remove myelinated axons, cellular debris and non-neuronal cells. Neurons were resuspended in serum-free F14 medium containing N1 supplements, and plated on polylysine/laminin coated glass coverslips as described (Smith et al, J. Neurosci. 17:646-658 (1997)). Cells from 12-14 ganglia were plated in 12 wells of a standard 24-well plate. After 18-24 hours, cultures were fixed in 4% paraformaldehyde for 30 minutes at room temperature, washed and stained with antibodies to detect neurons expressing chicken CAP-23 (monoclonal antibody 15C1) and chicken GAP-43 (rabbit polyclonal antibody) (Caroni et al, J. Cell Biol. 136:679-692 (1997), Aigner et al, Cell 83:269-278 (1995)). To visualize all neuronal processes, cultures were stained with antibodies to β III tubulin (MAB 1637; Chemicon, Temecula, Calif.). Cells were viewed with a CCD camera and analyzed with IPLab 3.2 for the Macintosh (Scanalytics, Inc., Fairfax, Va.). Only neurons that stained strongly for the appropriate transgene(s) were analyzed. In control cultures, cells that stained strongly for the neuron-specific β III tubulin were analyzed. Cells with processes greater than 2 cell body diameters were scored. The length of the longest process for each cell, and the number of branches formed along that process, were then measured.
To identify genes responsible for the onset of axon regeneration, a short-term in vitro assay was used that monitors a transcription-dependent switch in axon extension induced in DRG neurons by axon injury (Smith et al, J. Neurosci. 17:646-658 (1997)). Neurons are removed from adult animals and cultured for 18-24 hours (Smith et al, J. Neurosci. 17:646-658 (1997)). Because the neurons are axotomized during this removal, they will eventually respond by inducing the full complement of growth-associated genes (Smith et al, J. Neurosci. 17:646-658 (1997)). Over the first 24 hours in culture, however, axon outgrowth depends only on genes that were already expressed in the neurons at the time of their removal from the animal (Smith et al, J. Neurosci. 17:646-658 (1997)). Neurons isolated from adult mice with no prior manipulation (naive neurons) supported a limited amount of outgrowth (Smith et al, J. Neurosci. 17:646-658 (1997)) and FIG. 1), characterized by the emergence of relatively short and highly branched axons (FIGS. 2 and 3). In contrast, neurons that had responded to a peripheral nerve lesion several days before removal were much more likely to extend axons (FIG. 1), and those axons were long and sparsely branched (FIGS. 2 and 3). This “elongating” growth resembles the extension required for nerve regeneration in vivo, and reflects the expression of genes induced by peripheral nerve injury (Smith et al, J. Neurosci. 17:646-658 (1997)).

Molecule	propensity / number of adult DRG neurons that extended axons	extension of long (>300 μm) axons	modal length of axons (naive adult DRG neurons, persistent transgene expression, 18-24 hours in culture)
CAP-23: growth cone protein; chicken CAP-23 transgene expressed in mouse neurons under Thy-1 promoter (protein, UniProt P23614 2-244, looked up, transgene in mouse neurons, growth cone protein; chicken CAP-23 transgene expressed in mouse neurons under Thy-1 promoter) Brain acid soluble protein 1 …: GGKLSKKKKGYSVNDEKAKDKDKKAEGAATEEEETPKEAEDAQQTTETTEVKENNKEEKVEKDAQVSANKTEEKEGEKEKTVTQEEAQKAEPEKSEAVVDAKVEPQKNNEQAPKQEEPAAASAPAASSEAPKTSEPSSDAKASQPSEATAPSKADDKSKEEGEAKKTEAPATPAAQETKSEVAPASDSKPSSSEAAPSSKETVAATAAPSSTAKASDPSAPPEEAKPSEAPATNSDQTIAVQD	increased the number	did not elicit extension of long axons	
GAP-43: growth-associated growth cone protein; chicken GAP-43 transgene expressed in mouse neurons under Thy-1 promoter (protein, UniProt P35001 1-246, looked up, transgene in mouse neurons, growth-associated growth cone protein; chicken GAP-43 transgene expressed in mouse neurons under Thy-1 promoter) Neuromodulin: MLCCMRRTKQVEKNEDGDQKIEQDGIKPEDKAHKAATKIQASFRGHITRKKLKGEKKADAPASESEAADKKDEGPAGGAAENKESEASAATEASAADSAQLDEGSKDSSVPAEEKKGNGAADTGSEQPAPQAATPAASSEEKPAAAAETESATKASTDNSPSLKADEAQDKEEPKQADVPAADTTATTTPAAEDATAKATAQPQMETVESSQTEEKTDAVEETKPTESAQQEEVKEEESKADQENA	increased the propensity	Only a small fraction	100-150 μm
